Data set [1] concerns the target T1, PhoP (Mycobacterium tuberculosis, UniProt P71814 1-247). In words: ITC. On the technique in general: In ITC the heat of successive injections is recorded.
In data set [2] the target is T1, PhoP. In words: ITC. This is another data set of the same source.

In paper PMC5542402 one finds Kd data, which are given here for 2 molecules.

Like-named read-outs stand apart in the source and are kept apart here.

B1: sel36 (dsDNA)
DNA 1: GATTCACAGCTGATTCACAGCATCTAG
DNA 2: CTAGATGCTGTGAATCAGCTGTGAATC
Broadly, the Kd is the free concentration of one partner at which half of the binding sites on the other are occupied at equilibrium, for simple one-to-one binding. Low values mean tighter binding, high ones weaker binding. B1: the Kd in data set [1] came out at 8.03 ± 3.42 nM.

B2: sel36m (dsDNA)
DNA 1: GATTCACAGCTGATACACAGGATCTAG
DNA 2: CTAGATCCTGTGTATCAGCTGTGAATC
In data set [2], B2 showed a Kd of 32.3 ± 4.12 nM.
